In patent US20200361992A1 (PROTAGONIST THERAPEUTICS, published 2020):
Positions of bridges follow the written chain, without caps; N, C: chain ends. Non-standard residues stand in square brackets, D forms with d. Groups on a side chain read outwards from the residue. Primed or numbered codes have the meaning given here. *: point of attachment. PEG12 = NCCOCCOCCOCCOCCOCCOCCOCCOCCOCCOCCOCCOCCC(=O)O; Palmitoyl = CCCCCCCCCCCCCCCC(=O)*; Isovaleryl = CC(C)CC(=O)*; PEG2′ = not defined here; Ahx = NCCCCCC(=O)O; Sar = CNCC(=O)O

T1: human ferroportin (SLC40A1) fused with GFP, stably expressed in HEK293 cells (human, UniProt Q9NP59 1-571)
T1 sequence (looked up): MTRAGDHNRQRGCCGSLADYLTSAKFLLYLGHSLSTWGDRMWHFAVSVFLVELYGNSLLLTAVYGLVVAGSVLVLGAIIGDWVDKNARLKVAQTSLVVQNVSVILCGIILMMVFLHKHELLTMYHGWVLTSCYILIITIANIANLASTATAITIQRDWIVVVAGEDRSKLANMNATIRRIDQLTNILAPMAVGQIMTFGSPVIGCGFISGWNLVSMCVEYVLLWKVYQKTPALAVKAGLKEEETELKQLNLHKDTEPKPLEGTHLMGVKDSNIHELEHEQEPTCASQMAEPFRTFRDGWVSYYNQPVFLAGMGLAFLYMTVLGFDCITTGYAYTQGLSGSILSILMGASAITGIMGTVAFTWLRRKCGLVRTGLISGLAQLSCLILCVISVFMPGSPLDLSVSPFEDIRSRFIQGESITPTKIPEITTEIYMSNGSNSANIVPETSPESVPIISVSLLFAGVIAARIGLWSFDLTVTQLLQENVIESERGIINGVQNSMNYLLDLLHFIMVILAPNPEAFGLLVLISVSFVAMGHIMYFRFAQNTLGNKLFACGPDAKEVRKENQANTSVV


Molecular target: T1, human ferroportin (SLC40A1) fused with …
Assay: cell-based or functional assay

Binder | FPN IC50 [nM]
Isovaleryl-DTHFPCI[dK]FK([PEG12-Palmitoyl])CK-NH2 (disulfide 6-11 (inferred)) [Compd ID 78] | 17
DTHFPCIKFKPRSKC (Isovaleric acid-DTHFPCIKF-Lys[PEG11-Palm]-PRSKC-NH2) [Compd ID 4] | 32
Isovaleryl-DTHFPCI[dK]FK([Ahx-Palmitoyl])KC-NH2 (disulfide 6-12 (inferred)) [Compd ID 86] | 9
DTHFPCIKFKPRSC (Isovaleric acid-DTHFPCIKF-Lys[PEG11-Palm]-PRSC-NH2) [Compd ID 5] | 30
Isovaleryl-DTHFPCI[dK]FK([PEG12-Palmitoyl])KC-NH2 (disulfide 6-12 (inferred)) [Compd ID 80] | 14
Isovaleryl-DTHFPCI[dK]FK([PEG12-Palmitoyl])PRSK[Sar]C-NH2 (disulfide 6-16 (inferred)) [Compd ID 74] | 9
Isovaleryl-DTHFPCI[dK]FK([PEG12-Palmitoyl])RC[dR]-NH2 (disulfide 6-12 (inferred)) [Compd ID 85] | 27
Isovaleryl-DTHFPCI[dK]FK([PEG2′-Palmitoyl])KC-NH2 (disulfide 6-12 (inferred)) [Compd ID 87] | 15
Isovaleryl-DTHFPCI[dK]FK([PEG12-Palmitoyl])PRCK-NH2 (disulfide 6-13 (inferred)) [Compd ID 77] | 15
Isovaleryl-DTHFPCI[dK]FK([PEG12-Palmitoyl])[dK]C-NH2 (disulfide 6-12 (inferred)) [Compd ID 82] | 13
Isovaleryl-DTHFPCI[dK]FK([PEG2′-PEG2′-C18 acid])KC-NH2 (disulfide 6-12 (inferred)) [Compd ID 89] | 27
Isovaleryl-DTHFPCI[dK]FK([PEG12-Palmitoyl])PPRSCK-NH2 (disulfide 6-15 (inferred); not fully specified) [Compd ID 76] | 16
Isovaleryl-DTHFPCI[dK]FK([PEG12-Palmitoyl])[dR]C-NH2 (disulfide 6-12 (inferred)) [Compd ID 81] | 9
Isovaleryl-DTHFPCI[dK]FK([PEG12-Palmitoyl])KC[dK]-NH2 (disulfide 6-12 (inferred)) [Compd ID 83] | 40
Isovaleryl-DTHFPCI[dK]FK([PEG12-Palmitoyl])RC-NH2 (disulfide 6-12 (inferred)) [Compd ID 79] | 22
Isovaleryl-DTHFPCI[dK]FK([PEG12-Palmitoyl])PRSKCK-NH2 (disulfide 6-15 (inferred)) [Compd ID 75] | 14
Isovaleryl-DTHFPCI[dK]FK([PEG2′-PEG2′-Palmitoyl])KC-NH2 (disulfide 6-12 (inferred)) [Compd ID 88] | 13
Isovaleryl-DTHFPCI[dK]FK([PEG12-Palmitoyl])HC[dH]-NH2 (disulfide 6-12 (inferred)) [Compd ID 84] | 16
